According to patent US20160264960A1 (Chugai, published 2016):
Values belong to the binder of their own block, whether it stands above or below them.

Legend:
soluble human plexin A1 [1] = target: T1, soluble human plexin A1 (human, UniProt Q9UIW2 27-1244); assay: biolayer interferometry (Octet RED384), antibody on Protein G biosensor, soluble human plexin A1 in solution; antigen concentration not given [a]
T1 construct: also called hPlexin A1; human Plexin A1 extracellular region
Description: (§1) The binding evaluation was conducted using HBS-EP+Buffer (GE Healthcare Japan Corp.) as a buffer.
(§2) After binding of the antibody to Protein G Biosensors (forteBIO), soluble human IL-6R or soluble human plexin A1 was allowed to interact with the antibody on the biosensor through contact therebetween for 120 seconds, and subsequently contacted with the buffer for 120 seconds to measure the antibody-antigen interaction. Then, the biosensor was regenerated through contact with 10 mmol/L glycine-HCl (pH 1.5). The measurement was conducted at 30° C.

soluble human IL-6R [2] = target: T2, soluble human IL-6R (human, UniProt P08887 20-357); assay: biolayer interferometry (Octet RED384), antibody on Protein G biosensor, soluble human IL-6R in solution, 120 s association and 120 s dissociation [a]
T2 construct: Analyte in the Octet experiments; also called hIL-6R; soluble hIL-6R
T2 sequence: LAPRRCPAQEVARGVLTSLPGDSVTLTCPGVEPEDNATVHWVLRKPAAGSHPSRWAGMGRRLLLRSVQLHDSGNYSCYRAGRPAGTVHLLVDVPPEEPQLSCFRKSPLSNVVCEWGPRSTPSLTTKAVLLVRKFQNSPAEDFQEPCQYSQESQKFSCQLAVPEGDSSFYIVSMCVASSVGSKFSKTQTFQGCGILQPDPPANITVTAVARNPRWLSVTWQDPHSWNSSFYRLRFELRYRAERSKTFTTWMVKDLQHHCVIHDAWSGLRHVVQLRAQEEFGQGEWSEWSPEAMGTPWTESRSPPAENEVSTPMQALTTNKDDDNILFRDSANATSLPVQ
Description: as §1, §2

soluble human plexin A1 [3] = target: T1, soluble human plexin A1; assay: biolayer interferometry (Octet RED384), antibody on Protein G biosensor, soluble human plexin A1 in solution, 120 s association and 120 s dissociation [b]
Description: as §1, §2

soluble human IL-6R [4] = target: T2, soluble human IL-6R; assay: biolayer interferometry (Octet RED384), antibody on Protein G biosensor, soluble human IL-6R in solution; antigen concentration not given [b]
Description: as §1, §2

soluble human IL-6R [5] = target: T2, soluble human IL-6R; assay: biolayer interferometry (Octet RED384), antibody on Protein G biosensor, soluble human IL-6R in solution, 120 s association and 120 s dissociation [b]
Description: (§3) Each antibody (6RNH-2_02, 6RNH-2_37, 6RNH-3(2)_32, and 6RNH-2_42) obtained in the paragraph (4-1) was evaluated for its binding activity against soluble human IL-6R using Octet RED384 (forteBIO). The binding evaluation was conducted using HBS-EP+ Buffer (GE Healthcare Japan Corp.) as a buffer.
as §2, with “IL-6R” for “IL-6R or soluble human plexin A1”

soluble human IL-6R [6] = target: T2, soluble human IL-6R; assay: biolayer interferometry (Octet RED384), antibody on Protein G biosensor, soluble human IL-6R in solution, 120 s association and 120 s dissociation [c]
Description: as §3
as §2, with “IL-6R” for “IL-6R or soluble human plexin A1”

[7] = target: T3, human CD3e (hCD3e) extracellular region with FLAG tag (human, UniProt P07766 22-129); assay: biolayer interferometry (Octet RED384), antibody on Protein G biosensor, human CD3e in solution; antigen concentration not given [a]
Description: (§4) The antibody (6RhCEB3(2)_10) obtained in the paragraph (6-2) or an anti-CD3 antibody hCE115HA/L0000 (heavy chain: SEQ ID NO: 42; light chain: SEQ ID NO: 66) was evaluated for its binding activity against soluble human IL-6R and human CD3e (hCD3e) using Octet RED384 (forteBIO). The binding evaluation was conducted using HBS-EP+Buffer (GE Healthcare Japan Corp.) as a buffer.
as §2, with “or” for “or soluble”, “CD3e” for “plexin A1”

soluble human IL-6R [8] = target: T2, soluble human IL-6R; assay: biolayer interferometry (Octet RED384), antibody on Protein G biosensor, soluble human IL-6R in solution, 120 s association and 120 s dissociation [a]; remark: listed apart in the source
Description: as §4
as §2, with “or” for “or soluble”, “CD3e” for “plexin A1”

[9] = target: T3, human CD3e (hCD3e) extracellular region …; assay: biolayer interferometry (Octet RED384), antibody on Protein G biosensor, human CD3e in solution, 120 s association and 120 s dissociation [b]
Description: as §4
as §2, with “or” for “or soluble”, “CD3e” for “plexin A1”

soluble human IL-6R [10] = target: T2, soluble human IL-6R; assay: biolayer interferometry (Octet RED384), antibody on Protein G biosensor, soluble human IL-6R in solution; antigen concentration not given [b]; remark: listed apart in the source
Description: as §4
as §2, with “or” for “or soluble”, “CD3e” for “plexin A1”

soluble human IL-6R [11] = target: T2, soluble human IL-6R; assay: biolayer interferometry (Octet RED384), antibody on Protein G biosensor, soluble human IL-6R in solution, 120 s association and 120 s dissociation [a]; remark: listed apart in the source
Description: (§5) Each antibody (6RmIAB3(2)_02, 6RmIAB3(2)_06, and 6RmIAB3(2)_16) obtained in the paragraph (6-2) or an anti-mouse IgA antibody mIANMIgL_095 (heavy chain: SEQ ID NO: 41; light chain: SEQ ID NO: 65) was evaluated for its binding activity against soluble human IL-6R and mouse IgA using Octet RED384 (forteBIO). The binding evaluation was conducted using HBS-EP+Buffer (GE Healthcare Japan Corp.) as a buffer.
as §2, with “mouse IgA” for “soluble human plexin A1”

mouse IgA [12] = target: T4, mouse IgA (mouse, UniProt P01878 114-344); assay: biolayer interferometry (Octet RED384), antibody on Protein G biosensor, mouse IgA in solution; antigen concentration not given [a]
T4 sequence (looked up): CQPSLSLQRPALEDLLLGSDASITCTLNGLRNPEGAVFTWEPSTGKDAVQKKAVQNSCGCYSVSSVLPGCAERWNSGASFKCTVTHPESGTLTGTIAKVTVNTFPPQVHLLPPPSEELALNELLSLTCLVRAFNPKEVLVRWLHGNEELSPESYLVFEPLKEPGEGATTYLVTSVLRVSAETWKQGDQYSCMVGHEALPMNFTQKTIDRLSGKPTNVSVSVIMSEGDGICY
Description: as §5
as §2, with “mouse IgA” for “soluble human plexin A1”

soluble human IL-6R [13] = target: T2, soluble human IL-6R; assay: biolayer interferometry (Octet RED384), antibody on Protein G biosensor, soluble human IL-6R in solution, 120 s association and 120 s dissociation [b]; remark: listed apart in the source
Description: as §5
as §2, with “mouse IgA” for “soluble human plexin A1”

mouse IgA [14] = target: T4, mouse IgA; assay: biolayer interferometry (Octet RED384), antibody on Protein G biosensor, mouse IgA in solution; antigen concentration not given [b]
Description: as §5
as §2, with “mouse IgA” for “soluble human plexin A1”

soluble human IL-6R [15] = target: T2, soluble human IL-6R; assay: biolayer interferometry (Octet RED384), antibody on Protein G biosensor, soluble human IL-6R in solution; antigen concentration not given [d]
Description: as §5
as §2, with “mouse IgA” for “soluble human plexin A1”

T3 sequence (P07766 other isoform, or with tags, fused parts or gaps): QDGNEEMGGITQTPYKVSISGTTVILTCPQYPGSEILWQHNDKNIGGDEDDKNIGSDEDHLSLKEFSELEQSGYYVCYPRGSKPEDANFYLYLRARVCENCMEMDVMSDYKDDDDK
T1 sequence (Q9UIW2 other isoform, or with tags, fused parts or gaps): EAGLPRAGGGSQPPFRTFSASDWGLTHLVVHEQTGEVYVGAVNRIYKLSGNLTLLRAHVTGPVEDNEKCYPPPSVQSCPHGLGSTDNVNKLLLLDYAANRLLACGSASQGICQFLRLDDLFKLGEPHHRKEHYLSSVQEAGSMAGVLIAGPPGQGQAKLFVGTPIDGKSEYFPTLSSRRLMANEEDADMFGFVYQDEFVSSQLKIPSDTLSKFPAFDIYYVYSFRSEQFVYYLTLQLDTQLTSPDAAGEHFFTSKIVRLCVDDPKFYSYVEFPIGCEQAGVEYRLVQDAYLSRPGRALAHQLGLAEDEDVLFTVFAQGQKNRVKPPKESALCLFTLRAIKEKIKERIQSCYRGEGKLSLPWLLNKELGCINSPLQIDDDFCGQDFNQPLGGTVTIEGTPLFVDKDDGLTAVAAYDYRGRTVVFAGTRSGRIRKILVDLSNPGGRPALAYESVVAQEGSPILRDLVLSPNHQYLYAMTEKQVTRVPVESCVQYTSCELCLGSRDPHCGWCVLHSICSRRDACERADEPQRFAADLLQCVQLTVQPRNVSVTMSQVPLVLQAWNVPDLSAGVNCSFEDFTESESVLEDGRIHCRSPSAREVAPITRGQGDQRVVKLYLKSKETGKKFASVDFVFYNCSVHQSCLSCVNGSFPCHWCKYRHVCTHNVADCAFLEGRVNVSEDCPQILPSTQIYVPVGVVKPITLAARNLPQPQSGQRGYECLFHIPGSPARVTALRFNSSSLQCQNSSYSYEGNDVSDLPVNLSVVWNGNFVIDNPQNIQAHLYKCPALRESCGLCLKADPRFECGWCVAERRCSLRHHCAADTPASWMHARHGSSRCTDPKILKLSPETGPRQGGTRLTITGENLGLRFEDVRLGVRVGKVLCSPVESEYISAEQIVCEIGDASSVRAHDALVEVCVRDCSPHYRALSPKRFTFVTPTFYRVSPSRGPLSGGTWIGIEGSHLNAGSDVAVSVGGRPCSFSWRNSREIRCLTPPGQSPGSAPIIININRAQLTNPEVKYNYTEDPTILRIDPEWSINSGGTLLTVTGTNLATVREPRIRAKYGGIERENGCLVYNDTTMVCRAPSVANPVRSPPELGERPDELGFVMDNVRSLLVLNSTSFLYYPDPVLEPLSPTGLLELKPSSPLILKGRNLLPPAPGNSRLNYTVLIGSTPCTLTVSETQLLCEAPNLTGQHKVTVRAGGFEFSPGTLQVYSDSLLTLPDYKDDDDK

- binding result (soluble human plexin A1 [1]): no binding
- binding result (soluble human IL-6R [2]): binds
B1: 6RPAB3_03 (antibody, human IgG1, kappa, V domains shown)
VH: EVQLVESGGGLVQPGGSLRLSCATSGFTFSSYEMNWVRQAPGKGLEWVSYIDRSGSTIYYADSVKGRFTISRDNAKNSLYLQMNSLRAEDTAVYYCAGEWWQGDSWGQGTTVTVSS
VL: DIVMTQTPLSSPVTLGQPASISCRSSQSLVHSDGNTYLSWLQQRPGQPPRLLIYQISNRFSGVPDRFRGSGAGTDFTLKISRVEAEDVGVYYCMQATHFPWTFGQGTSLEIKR

- binding result (soluble human plexin A1 [3]): binds
- binding result (soluble human IL-6R [4]): no binding
B2: hPANKB2-3#135 (antibody, human IgG1, kappa, V domains shown)
VH: EVQLVQSGAEVKKPGASVKVSCKASGYTFTSYGISWVRQAPGQGLEWMGWISAYNGNTNYAQKLQGRVTMTTDTSTSTAYMELRSLRSDDTAVYYCARGGRGGDAFDIWGQGTMVTVSS
VL: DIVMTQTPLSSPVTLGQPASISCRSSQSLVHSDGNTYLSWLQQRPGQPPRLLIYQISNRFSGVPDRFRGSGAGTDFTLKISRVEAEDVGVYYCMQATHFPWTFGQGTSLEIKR

- binding result (soluble human IL-6R [5]): binds
B3: 6RNH-2_37 (antibody, human IgG1, kappa, V domains shown)
VH: QVQLQESGPGLVRPSQTLSLTCTVSGYSITSDHAWSWVRQPPGRGLEWIGYISYSGITTYNPSLKSRVTMLRDTSKNQFSLRLSSVTAADTAVYYCARSLARTTAMDYWGQGTLVTVSS
VL: DIQMTQSPSSLSASVGDSVTITCQASQDISSYLNWYQQKPGKAPELLIYYGSELHSGVPSRFSGSGSGTDFTFTISSLEAEDAATYYCGQGNRLPYTFGQGTKVEIER
notes: IgG with the PF1 L chain

- binding result (soluble human IL-6R [6]): binds
B4: 6RNH-3(2)_32 (antibody, human IgG1, kappa, V domains shown)
VH: QVQLQESGPGLVKPSETLSLTCAVSGYSISHDHAWSWVRQPPGEGLEWIGHISYSGITNYNPHLQDRVTISRDTSKNQFSLKLSSVTAADTAVYYCARFLARITAHDHWGEGTLVTVSS
VL: B3 VL
notes: IgG with the PF1 L chain

- binding result [7]: no binding
- binding result (soluble human IL-6R [8]): binds
B5: 6RhCEB3(2)_10 (antibody, human IgG1, kappa, V domains shown)
VH: QVQLVQSGAEVKKPGSSVKVSCKASGGTFSSYAISWVRQAPGQGLEWMGGIIPIFGTANYAQKFQGRVTITADESTSTAYMELSSLRSEDTAVYYCARDHYDILTGYPDPTYYYYGMDVWGQGTMVTVSS
VL: DIVMTQSPLSLPVTPGEPASISCRSSQSLVHSNRNTYLHWYQQKPGQAPRLLIYKVSNRFSGVPDRFSGSGSGTDFTLKISRVEAEDVGVYYCGQGTQVPYTFGQGTKLEIKR
notes: IgG with the L chain of the humanized anti-CD3 antibody CE115

- binding result [9]: binds
- binding result (soluble human IL-6R [10]): no binding
B6: hCE115HA/L0000 (antibody, human IgG1, kappa, V domains shown)
VH: QVQLVESGGGVVQPGRSLRLSCAASGFTFSNAWMHWVRQAPGKGLEWVAQIKAKSNNYATYYAESVKGRFTISRDDSKNSLYLQMNSLKTEDTAVYYCRYVHYGAYYGVDAWGQGTTVTVSS
VL: B5 VL
notes: also called anti-CD3 antibody hCE115HA/L0000; humanized anti-human CD3 antibody CE115

- binding result (soluble human IL-6R [11]): binds
- binding result (mouse IgA [12]): no binding
B7: 6RmIAB3(2)_02 (antibody, human IgG1, lambda, V domains shown)
VH: QVQLQESGPGLVKPSGTLSLTCAVSGGSISSSDWWSWVRQPPGKGLEWIGEIYHGGSTNYNPSLKSRVTISVDRSKNQFSLNLSSVTAADTAVYYCARAPRGSYRIDYWGQGTLVTVSS
VL: SYELTQPPSVSVSPGQSASITCSGDKLGDRFVTWYQQKPGQSPVLVMYQDNQRPSGIPERFSGSNSGNTATLTITGTPAMDEADYYCQTWDAGTGVVFGGGTKLTVLS
notes: IgG with the L chain of the anti-mouse IgA antibody mIANMIgL_095; Culture supernatant was recovered; no purification is described

- binding result (soluble human IL-6R [13]): binds
- binding result (mouse IgA [14]): no binding
B8: 6RmIAB3(2)_06 (antibody, human IgG1, lambda, V domains shown)
VH: QVQLVQSGAEVKKPGASVKVSCKASGYTFATSGISWVRQAPGQGLEWLGWISPYNSRTNSAQKLQGRVNMTTDTSTNTAYLELRSLTSDDTAVYYCARANGDYRNWFDPWGQGTLVTVSS
VL: B7 VL
notes: IgG with the L chain of the anti-mouse IgA antibody mIANMIgL_095; Culture supernatant was recovered

- binding result (soluble human IL-6R [15]): no binding
B9: mIANMIgL_095 (antibody, human IgG1, lambda, V domains shown)
VH: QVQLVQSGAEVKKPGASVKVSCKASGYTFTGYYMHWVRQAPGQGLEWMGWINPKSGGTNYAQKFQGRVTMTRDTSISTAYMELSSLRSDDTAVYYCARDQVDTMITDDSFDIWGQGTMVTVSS
VL: B7 VL
notes: also called anti-mouse IgA antibody mIANMIgL_095
